Measurements reported in patent EP4491230A1 (iOmx Therapeutics AG, dated 2025).

Target: recombinant LILRA1 ECD (human, UniProt O75019 17-461)
Assay: BLI, IgG on AHC sensor, ECD as analyte

Chain of recombinant LILRA1 ECD (O75019 17-461 limits assumed): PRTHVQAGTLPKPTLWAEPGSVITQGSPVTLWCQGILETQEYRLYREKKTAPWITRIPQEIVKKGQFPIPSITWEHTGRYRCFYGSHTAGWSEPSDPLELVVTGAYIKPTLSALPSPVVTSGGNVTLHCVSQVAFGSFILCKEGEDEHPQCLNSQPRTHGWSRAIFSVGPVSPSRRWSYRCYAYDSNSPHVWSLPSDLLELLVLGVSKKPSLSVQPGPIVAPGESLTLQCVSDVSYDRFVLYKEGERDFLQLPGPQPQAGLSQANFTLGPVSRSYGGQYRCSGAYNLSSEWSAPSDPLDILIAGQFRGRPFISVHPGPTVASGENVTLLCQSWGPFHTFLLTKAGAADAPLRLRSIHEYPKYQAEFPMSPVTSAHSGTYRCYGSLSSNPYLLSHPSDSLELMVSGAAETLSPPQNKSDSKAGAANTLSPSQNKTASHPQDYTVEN

B1: A-046 (antibody, V domains shown)
VH: QVQLVQSGAEVKKPGSSVKVSCKASGGSFQSYAINWVRQAPGQGLEWMGGIIPGFSTANYAQKFQGRVTITADESTSTAYMELSSLRSEDTAVYYCAKDLGTYSSGWPYYYGMDVWGQGTTVTVSS
VL: SYELTQPPSVSVSPGQTASITCSGDKLGDKYASWYQQKPGQSPVLVIYQDSKRPSGIPERFSGSNSGNTATLTISGTQAEDEADYYCQLTHLTIYVFGGGTKLTVL
notes: HC of A-015 and LC of A-036; Tested as IgG
binding result: no binding (tested: 900 nM of LILRA1 ECD)
